Source: the supplement of paper PMC10567573

B1: TRIM35 (parent)
chain: PTCPVCKDRASPADLRTNHTLNNL

Variants of: B1
Assay: protein stability index of a GFP-peptide fusion (GPS, HEK-293T) (PSI 1-6); higher = more stable
Conditions: c terminus: a fixed tail appended
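Further: lentivirally expressed fusions sorted by FACS into six bins by GFP to DsRed ratio, PSI derived from sequencing read proportions per bin multiplied by bin number.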

Protein stability index of substitutions, site by site:
D8: I 2.65 | F 1.71 | Q 3 | R 2.02 | S 2.45 | C 2.09 | E 2.75 | W 2.32 | H 2.61 | M 1.92 | V 2.39 | N 2.65 | L 2.36 | P 2.83 | A 1.94 | G 3.11 | T 2.67 | K 2.31 | Y 2.02
N18: Y 2.76 | T 2.86 | V 2.62 | M 2.64 | E 3.75 | W 2.16 | D 3.4 | H 2.94 | Q 3.3 | K 2.48 | P 2.83 | S 2.81 | C 3.6 | R 2.71 | L 2.6 | G 3.03 | F 2.53 | I 2.31 | A 2.67
V5: M 2.76 | N 3.3 | K 3.59 | Y 1.91 | I 2.69 | P 4.71 | Q 3.38 | L 2.47 | H 2.36 | W 2.78 | R 2.87 | S 3.43 | T 3.19
K7: P 4.04 | F 2.94 | S 2.68 | E 3.88 | L 2.91 | D 3.65 | I 3.18 | R 2.72 | T 2.72 | G 2.72 | M 2.87 | Q 3.37 | C 2.68 | A 3.19 | V 3.45 | N 3.13 | W 2.84 | H 3.13 | Y 2.72
A10: E 3.33 | W 2.22 | R 3.03 | I 3.05 | P 3.17 | T 2.96 | D 3.34 | H 3.23 | Q 3.01 | L 1.96 | N 2.78 | Y 2.56 | M 2.72 | G 2.88 | V 2.45 | S 2.86 | K 3.05 | C 2.03 | F 2.96
H19: R 3.14 | L 3.02 | Y 3.13 | G 3.33 | T 2.81 | D 3.61 | K 3.21 | C 2.95 | V 3.04 | E 3.79 | M 3.09 | A 2.86 | S 3.09 | P 3.19 | F 2.4 | N 3.09 | W 2.86 | I 2.5 | Q 3.28
L21: S 3.42 | M 3.18 | C 4.64 | Q 3.52 | G 3.3 | V 2.96 | A 3.22 | Y 2.76 | D 3.99 | E 3.59 | F 2.62 | P 3.39 | W 2.18 | N 3.27 | T 3.07 | R 2.55 | H 3.66 | K 3.13 | I 2.61
A13: E 3.86 | K 3.65 | L 2.31 | Y 2.59 | M 2.58 | G 3.23 | F 2.26 | R 3.2 | Q 2.55 | T 2.75 | S 2.87 | W 1.81 | V 2.62 | I 2.53 | H 3.1 | P 3.29 | C 3.69 | N 3.27 | D 3.13
T20: W 2.09 | L 2.77 | V 3.19 | Q 3.06 | F 2.59 | R 2.93 | D 3.76 | Y 2.74 | G 2.76 | A 3.11 | I 2.76 | E 3.92 | H 3.03 | P 3.23 | N 3 | K 2.81 | C 3 | M 2.67 | S 2.7
R16: W 2.01 | P 3.11 | F 2.42 | K 2.7 | V 3.07 | S 3.54 | A 3.34 | M 2.72 | Q 3.39 | H 3.17 | N 3.32 | G 2.63 | D 3.91 | Y 2.42 | I 2.33 | E 4.09 | L 3.04 | T 2.95 | C 3.89
P12: V 2.85 | A 2.46 | T 2.96 | E 3.38 | L 2.1 | M 2.35 | K 2.83 | G 2.9 | N 2.89 | I 2.47 | F 2.52 | H 2.61 | Y 2.69 | R 2.36 | C 2.58 | D 3.5 | S 2.95 | Q 3.11 | W 2.03
D14: K 2.72 | S 2.98 | G 2.48 | H 2.97 | V 2.54 | E 3.12 | C 3.9 | I 2.45 | W 2.6 | M 2.2 | L 2.2 | T 2.77 | P 2.98 | Q 3.18 | F 2.21 | Y 2.24 | R 2.94 | N 2.5 | A 2.5
C6: Q 4.28 | F 3.84 | H 4.11 | T 4.44 | W 3.21 | G 4.12 | I 3.59 | N 4.2 | R 4.05 | D 4.74 | V 4.22 | E 4.64 | Y 4.1 | S 4.39 | P 4.09 | A 4.55 | K 4.31 | L 3.86 | M 4.22
L15: G 3.87 | E 3.86 | F 2.66 | R 3.33 | M 2.9 | D 3.73 | A 3.35 | Y 2.83 | I 3 | T 3.57 | P 3.34 | C 4.23 | H 3.14 | S 3.57 | V 3.67 | Q 3.78 | N 3.96 | W 2.13 | K 3.21
N22: Q 3.63 | L 2.56 | R 1.98 | H 2.9 | T 2.76 | K 2.87 | V 2.21 | S 2.99 | D 4.1 | M 2.67 | F 2.13 | G 3.39 | A 3.06 | P 2.44 | C 4.13 | I 2.65 | E 3.73
S11: C 3.74 | I 2.97 | R 2.72 | A 3.3 | P 3.19 | T 3.04 | M 3.1 | V 3.1 | K 3.32 | Q 3.07 | G 2.94 | L 3.07 | D 3.44 | E 3.51 | H 2.92 | Y 3.11 | F 2.55 | W 2.51 | N 2.86
R9: P 3.71 | T 3.5 | H 3.66 | C 2.97 | L 3.07 | D 3.99 | W 3.11 | E 3.62 | Q 3.55 | I 2.96 | M 2.97 | G 3.66 | V 2.9 | S 3.5 | A 2.98 | N 3.12 | Y 3.08 | F 3.11 | K 3.16
T17: L 2.58 | G 3.18 | V 2.6 | R 3.1 | Y 2.6 | F 2.52 | E 3.29 | S 3.13 | D 3.36 | A 2.75 | W 2.35 | N 3.09 | M 2.67 | H 3.66 | K 3.02 | Q 3.28 | C 4.21 | P 3.34 | I 3.07
